Results as given in publication PMC5976436, “Structure of a TRPM2 channel in complex with Ca^2+ explains unique gating regulation” (eLife, 2018).

Target: the molecule itself
Assay: cryo-EM structure; purified nvTRPM2 in Buffer A (20 mM Tris-HCl pH 8.0, 150 mM NaCl, 0.06% digitonin, 1 mM DTT), 5 mg/ml, trace amounts of Ca2+, no ADPR; C4 symmetry

B1: Nematostella vectensis TRPM2 channel (transient receptor potential melastatin 2) (natural protein, UniProt A7T1N0 1-1551, looked up)
chain: MGKDSFTPLYDGGDSSHVHLNKFGSNQLSQSKKSWIARNFSRRECIRFVPKSHDVSRCKCGRPRERHSQQALESGQGSEEWNVASCTTKHPTNAYGEIDFEGYGGQKRAPYLRMSHDTDANLVITLMLKRWNLEIPNLVISVTGGAKSFVLKPRLREMFRRGLIKAAKTTGAWIITGGTNTGVMKHVGEAVKEQQLMFGSDTQVNVIGIATWGIVDKQSDLISEKNGKYPALYSMEPTPGHQGAMLDPNHSHFFLVDDGTEGKYGVEIGMRSRIEEAIMKVKTDSRSEAGSIGVPVVLLVLEGGPNTVATMYELIKKKVPAVVIDGSGRAASVVGFAYNHTIKRNVDGQTINVIDPQYEDEVRAKVVEVFGAKGADKTYSMIKDVLEDEKMISVYSLDGEISQDIDLAILKALLKANRSSPVAQLNLALAWNRIDLAKSDIFTEEQQWTTETLSAAMLTALLDDKAEFAELFLQNGLSMREFLSLDILCKLYAEVPGNTTIKPLLQKEMGKRQVKTIDMDVVGEVIEELMGDMFESYYRKDGHYFGELASYAEGLVLKNRKSSKDLLANINRIDPLPTPYLDVFLWAVLCNRRELARVLWEAGREPMAAALMASRLLKRMASRAQEDNTITDISSDLYDHARLFEERAVGVLDECFNENETLSQTLLVRELDHYSRMTALELAVSAESQDFIAHTSCQVLLTRLWMGTMAMNTRWWKVLVCLYLPVLIFPIIYFVPDEQHERQAAEREHQKSLNQKSSKVKSHKEKNDAPVVPVYRSKEEKAVSNDEEARVGTENEEEDFQLEDYIPEIREDDSMEVIMRNKKLGFCDRIMHFYSAPFSKFVGNVVGYLAFIFLYAYVVLFNFPRFDPAKTLGGIHPTEIVLYFWVFTILIEEIRQLAAKPPKYIKDKVSVYFSDTWNFVDIFSLTVFIIAIILRFFTNSRIFTASRIILSLDIIFFIVRSLQIFSVNRLLGPKLVMIQKMMQDLAQFIIILAVFTIAYGIALHAVMFPSPGIYARNNTWVTITSVVQYPYWQMYGELFLDEIQGEKPKEFGEVDPDGRWLSPLLLAIYMVFTNILLLNLLIAIFNYTFERVQEDSDKVWKFQRYDLVQEYHSRPVFAPPLVLLGHILIFIRWVWRMCRCGHPPRGSTMKIGLSPAEMEQMDNWEFQAAEMYIHQQQQKNSGTLEERVRALGDRVDCINSQLNRVLDSMSGTRAHALTDGNGLEGGHDSEGRLARMEVELSSNSESLQKILALLQQQPPVKGQAAVPIQLTLLHYKARSSPYPGSTAKRFAVQDNMVDWQVPFPDYKPVNYTAPVVLANPVWADKDLMAMSPRPELPYNQMDHTCNVNRVSYNGTYVVKDGLPLNPMGRTGMQGRGLLGRFGPNHAADPVVTRWKRTSAGVMLQGGKKVLEFVAIQRKDNNQWAIPGGMVEPGQLVTQALKAEFGEEAMAKLNVSQEEKERIAKQIERLFQQGQEIYKGYVDDPRNTDNAWMETVAVNFHDDKGDLFGDITLQAGDDAAAVRWQRVSGNIPLYASHVSILEKVAKMRDAAF
modifications: two N-acetylglucosamines attached to N1017
notes: TRPM2 of Nematostella vectensis, full-length protein; synthesized gene; the C-terminal NUDT9H domain is residues 1271-1551; model holds residues 6-23, 41-51, 86-546, 573-755, 812-1136 and 1148-1210; the NUDT9H domain is present in the protein but not seen in the map; also called nvTRPM2; not shown: GFP, C-terminal, cleaved
stoichiometry N: 4
